# Experimental data as given in patent US20050143285A1.
# T1: Aplysia californica acetylcholine binding protein (AChBP) (Aplysia californica)
# T1 chain: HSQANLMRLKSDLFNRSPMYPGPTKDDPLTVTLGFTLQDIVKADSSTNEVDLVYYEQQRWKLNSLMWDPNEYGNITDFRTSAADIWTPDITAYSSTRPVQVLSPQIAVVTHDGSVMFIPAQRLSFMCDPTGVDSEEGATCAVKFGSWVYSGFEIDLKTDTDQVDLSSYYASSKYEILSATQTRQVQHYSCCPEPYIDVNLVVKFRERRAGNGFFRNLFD
# Experiments:
# [1] = biological target: T1, Aplysia californica acetylcholine …
# [2] = biological target: T2, Lymnaea stagnalis acetylcholine binding protein (AChBP) (Lymnaea stagnalis), P58154
# T2 sequence (P58154 20-229): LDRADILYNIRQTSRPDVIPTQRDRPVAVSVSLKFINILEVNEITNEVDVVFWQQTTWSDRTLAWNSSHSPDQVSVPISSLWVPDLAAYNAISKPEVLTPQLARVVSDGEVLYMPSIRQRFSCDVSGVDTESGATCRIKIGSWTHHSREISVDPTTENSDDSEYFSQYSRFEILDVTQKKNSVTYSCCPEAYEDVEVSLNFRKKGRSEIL
# [3] = biological target: T1, Aplysia californica acetylcholine …
# [4] = biological target: T1, Aplysia californica acetylcholine …; experiment: stopped-flow spectrofluorimetry, excitation 280 nm, emission above 305 nm
# [5] = biological target: T2, Lymnaea stagnalis acetylcholine binding …; experiment: as above
# [6] = biological target: T1, Aplysia californica acetylcholine …
# [7] = biological target: T2, Lymnaea stagnalis acetylcholine binding …; experiment: stopped-flow spectrofluorimetry
# [8] = biological target: T2, Lymnaea stagnalis acetylcholine binding …; experiment: ratio of Kd on Lymnaea AChBP to Kd on Aplysia AChBP
binder,measurement,setting,value
"GCCSDPRCAWRC (modifications not checked) [α-conotoxin ImI, P50983 5-16]",Kd,[1],0.88 nM
same,Kd,[2],14 µM
same,koff,[3],0.01 s⁻¹
same,kon,[4],1.6e+07 M⁻¹ s⁻¹
same,kon,[5],1.4e+06 M⁻¹ s⁻¹
same,fold greater affinity than for L-AChBP,[6],> 10000 fold
same,koff,[7],19 s⁻¹
same,Kd Ratio L/A,[8],16000
